How the values were obtained:
HeLa Kyoto [1] = assay: solubility in G1/S (NP-40 vs SDS abundance) (log2 ratio); higher = more soluble; conditions: cell cycle stage: G1/S
HeLa Kyoto [2] = assay: melting temperature (median over replicates), in situ; higher = more thermally stable
HeLa Kyoto [3] = assay: solubility change mitosis vs G1/S (difference of NP-40 vs SDS log2 ratios) (log2 ratio difference); higher = more soluble in mitosis
HeLa Kyoto [4] = assay: thermal stability score vs G1/S (z-score of summed log2 fold changes over temperatures); higher = more thermally stable than in G1/S
[5] = cell cycle stage: early G1 (4.5 h after nocodazole release)
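Wherever melting temperature (median over replicates), in situ is given: HeLa Kyoto cells synchronized by double thymidine or nocodazole block, proteins quantified by TMT10plex mass spectrometry, three independent biological replicates.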
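Wherever solubility change mitosis vs G1/S (difference of NP-40 vs SDS log2 ratios) is given: synchronized HeLa Kyoto cells (double thymidine block for G1/S, nocodazole release for mitosis), protein amounts in NP-40 versus SDS lysates quantified by mass spectrometry, three biological replicates.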
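Wherever solubility in G1/S (NP-40 vs SDS abundance) is given: HeLa Kyoto cells arrested at G1/S by double thymidine block, proteins quantified by TMT10plex mass spectrometry in mild NP-40 versus SDS extracts, three biological replicates.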
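Wherever thermal stability score vs G1/S (z-score of summed log2 fold changes over temperatures) is given: synchronized HeLa Kyoto cells, proteins quantified by TMT10plex mass spectrometry, three biological replicates, mitosis taken 0.5 h after nocodazole release, G1/S directly after double thymidine block.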

Sequence | solubility in G1/S (log2) (HeLa Kyoto [1]) | melting temperature (HeLa Kyoto [2]; cell cycle stage: G1/S) | melting temperature (HeLa Kyoto [2]; cell cycle stage: mitosis) | solubility change mitosis (log2) (HeLa Kyoto [3]) | thermal stability score (HeLa Kyoto [4]; [5]) | thermal stability score (HeLa Kyoto [4]; cell cycle stage: mitosis)
MFSSVAHLARANPFNTPHLQLVHDGLGDLRSSSPGPTGQPRRPRNLAAAAVEEQYSCDYGSGRFFILCGLGGIISCGTTHTALVPLDLVKCRMQVDPQKYKGIFNGFSVTLKEDGVRGLAKGWAPTFLGYSMQGLCKFGFYEVFKVLYSNMLGEENTYLWRTSLYLAASASAEFFADIALAPMEAAKVRIQTQPGYANTLRDAAPKMYKEEGLKAFYKGVAPLWMRQIPYTMMKFACFERTVEALYKFVVPKPRSECSKPEQLVVTFVAGYIAGVFCAIVSHPADSVVSVLNKEKGSSASLVLKRLGFKGVWKGLFARIIMIGTLTALQWFIYDSVKVYFRLPRPPPPEMPESLKKKLGLTQ [SLC25A3] | -0.0671 | 56.3 °C | 56 °C | -0.0903 | -1.42 | -3.39
MRLFVSDGVPGCLPVLAAAGRARGRAEVLISTVGPEDCVVPFLTRPKVPVLQLDSGNYLFSTSAICRYFFLLSGWEQDDLTNQWLEWEATELQPALSAALYYLVVQGKKGEDVLGSVRRALTHIDHSLSRQNCPFLAGETESLADIVLWGALYPLLQDPAYLPEELSALHSWFQTLSTQEPCQRAAETVLKQQGVLALRPYLQKQPQPSPAEGRAVTNEPEEEELATLSEEEIAMAVTAWEKGLESLPPLRPQQNPVLPVAGERNVLITSALPYVNNVPHLGNIIGCVLSADVFARYSRLRQWNTLYLCGTDEYGTATETKALEEGLTPQEICDKYHIIHADIYRWFNISFDIFGRTTTPQQTKITQDIFQQLLKRGFVLQDTVEQLRCEHCARFLADRFVEGVCPFCGYEEARGDQCDKCGKLINAVELKKPQCKVCRSCPVVQSSQHLFLDLPKLEKRLEEWLGRTLPGSDWTPNAQFITRSWLRDGLKPRCITRDLKWGTPVPLEGFEDKVFYVWFDATIGYLSITANYTDQWERWWKNPEQVDLYQFMAKDNVPFHSLVFPCSALGAEDNYTLVSHLIATEYLNYEDGKFSKSRGVGVFGDMAQDTGIPADIWRFYLLYIRPEGQDSAFSWTDLLLKNNSELLNNLGNFINRAGMFVSKFFGGYVPEMVLTPDDQRLLAHVTLELQHYHQLLEKVRIRDALRSILTISRHGNQYIQVNEPWKRIKGSEADRQRAGTVTGLAVNIAALLSVMLQPYMPTVSATIQAQLQLPPPACSILLTNFLCTLPAGHQIGTVSPLFQKLENDQIESLRQRFGGGQAKTSPKPAVVETVTTAKPQQIQALMDEVTKQGNIVRELKAQKADKNEVAAEVAKLLDLKKQLAVAEGKPPEAPKGKKKK [MARS] | 0.171 | 49.1 °C | 49.4 °C | -0.109 | 1.07 | 4.3
MAAGGGGGSSKASSSSASSAGALESSLDRKFQSVTNTMESIQGLSSWCIENKKHHSTIVYHWMKWLRRSAYPHRLNLFYLANDVIQNCKRKNAIIFRESFADVLPEAAALVKDPSVSKSVERIFKIWEDRNVYPEEMIVALREALSTTFKTQKQLKENLNKQPNKQWKKSQTSTNPKAALKSKIVAEFRSQALIEELLLYKRSEDQIELKEKQLSTMRVDVCSTETLKCLKDKTGGKKFSKEFEEASSKLEEFVNGLDKQVKNGPSLTEALENAGIFYEAQYKEVKVVANAYKTFANRVNNLKKKLDQLKSTLPDPEESPVPSPSMDAPSPTGSESPFQGMGGEESQSPTMESEKSATPEPVTDNRDVEDMELSDVEDDGSKIIVEDRKEKPAEKSAVSTSVPTKPTENISKASSCTPVPVTMTATPPLPKPVNTSLSPSPALALPNLANVDLAKISSILSSLTSVMKNTGVSPASRPSPGTPTSPSNLTSGLKTPAPATTTSHNPLANILSKVEITPESILSALSKTQTQSAPALQGLSSLLQSVTGNPVPASEAASQSTSASPANTTVSTIKGRNLPSSAQPFIPKSFNYSPNSSTSEVSSTSASKASIGQSPGLPSTTFKLPSNSLGFTATHNTSPAAPPTEVTICQSSEVSKPKLESESTSPSLEMKIHNFLKGNPGFSGLNLNIPILSSLGSSAPSESHPSDFQRGPTSTSIDNIDGTPVRDERSGTPTQDEMMDKPTSSSVDTMSLLSKIISPGSSTPSSTRSPPPGRDESYPRELSNSVSTYRPFGLGSESPYKQPSDGMERPSSLMDSSQEKFYPDTSFQEDEDYRDFEYSGPPPSAMMNLEKKPAKSILKSSKLSDTTEYQPILSSYSHRAQEFGVKSAFPPSVRALLDSSENCDRLSSSPGLFGAFSVRGNEPGSDRSPSPSKNDSFFTPDSNHNSLSQSTTGHLSLPQKQYPDSPHPVPHRSLFSPQNTLAAPTGHPPTSGVEKVLASTISTTSTIEFKNMLKNASRKPSDDKHFGQAPSKGTPSDGVSLSNLTQPSLTATDQQQQEEHYRIETRVSSSCLDLPDSTEEKGAPIETLGYHSASNRRMSGEPIQTVESIRVPGKGNRGHGREASRVGWFDLSTSGSSFDNGPSSASELASLGGGGSGGLTGFKTAPYKERAPQFQESVGSFRSNSFNSTFEHHLPPSPLEHGTPFQREPVGPSSAPPVPPKDHGGIFSRDAPTHLPSVDLSNPFTKEAALAHAAPPPPPGEHSGIPFPTPPPPPPPGEHSSSGGSGVPFSTPPPPPPPVDHSGVVPFPAPPLAEHGVAGAVAVFPKDHSSLLQGTLAEHFGVLPGPRDHGGPTQRDLNGPGLSRVRESLTLPSHSLEHLGPPHGGGGGGGSNSSSGPPLGPSHRDTISRSGIILRSPRPDFRPREPFLSRDPFHSLKRPRPPFARGPPFFAPKRPFFPPRY [RPRD2] | -0.0214 | 48 °C | 49.2 °C | 0.0816 | 2.07 | 4.95
MGLETEKADVQLFMDDDSYSHHSGLEYADPEKFADSDQDRDPHRLNSHLKLGFEDVIAEPVTTHSFDKVWICSHALFEISKYVMYKFLTVFLAIPLAFIAGILFATLSCLHIWILMPFVKTCLMVLPSVQTIWKSVTDVIIAPLCTSVGRCFSSVSLQLSQD [CAV2] | -0.178 | 56.1 °C | 56.9 °C | -0.0267 | -1.45 | -2.03
MVLTLGESWPVLVGRRFLSLSAADGSDGSHDSWDVERVAEWPWLSGTIRAVSHTDVTKKDLKVCVEFDGESWRKRRWIEVYSLLRRAFLVEHNLVLAERKSPEISERIVQWPAITYKPLLDKAGLGSITSVRFLGDQQRVFLSKDLLKPIQDVNSLRLSLTDNQIVSKEFQALIVKHLDESHLLKGDKNLVGSEVKIYSLDPSTQWFSATVINGNPASKTLQVNCEEIPALKIVDPSLIHVEVVHDNLVTCGNSARIGAVKRKSSENNGTLVSKQAKSCSEASPSMCPVQSVPTTVFKEILLGCTAATPPSKDPRQQSTPQAANSPPNLGAKIPQGCHKQSLPEEISSCLNTKSEALRTKPDVCKAGLLSKSSQIGTGDLKILTEPKGSCTQPKTNTDQENRLESVPQALTGLPKECLPTKASSKAELEIANPPELQKHLEHAPSPSDVSNAPEVKAGVNSDSPNNCSGKKVEPSALACRSQNLKESSVKVDNESCCSRSNNKIQNAPSRKSVLTDPAKLKKLQQSGEAFVQDDSCVNIVAQLPKCRECRLDSLRKDKEQQKDSPVFCRFFHFRRLQFNKHGVLRVEGFLTPNKYDNEAIGLWLPLTKNVVGIDLDTAKYILANIGDHFCQMVISEKEAMSTIEPHRQVAWKRAVKGVREMCDVCDTTIFNLHWVCPRCGFGVCVDCYRMKRKNCQQGAAYKTFSWLKCVKSQIHEPENLMPTQIIPGKALYDVGDIVHSVRAKWGIKANCPCSNRQFKLFSKPASKEDLKQTSLAGEKPTLGAVLQQNPSVLEPAAVGGEAASKPAGSMKPACPASTSPLNWLADLTSGNVNKENKEKQPTMPILKNEIKCLPPLPPLSKSSTVLHTFNSTILTPVSNNNSGFLRNLLNSSTGKTENGLKNTPKILDDIFASLVQNKTTSDLSKRPQGLTIKPSILGFDTPHYWLCDNRLLCLQDPNNKSNWNVFRECWKQGQPVMVSGVHHKLNSELWKPESFRKEFGEQEVDLVNCRTNEIITGATVGDFWDGFEDVPNRLKNEKEPMVLKLKDWPPGEDFRDMMPSRFDDLMANIPLPEYTRRDGKLNLASRLPNYFVRPDLGPKMYNAYGLITPEDRKYGTTNLHLDVSDAANVMVYVGIPKGQCEQEEEVLKTIQDGDSDELTIKRFIEGKEKPGALWHIYAAKDTEKIREFLKKVSEEQGQENPADHDPIHDQSWYLDRSLRKRLHQEYGVQGWAIVQFLGDVVFIPAGAPHQVHNLYSCIKVAEDFVSPEHVKHCFWLTQEFRYLSQTHTNHEDKLQVKNVIYHAVKDAVAMLKASESSFGKP [KDM3A] | 0.0198 | 48.6 °C | 50.4 °C | -0.158 | -0.474 | 0.304
MATGGYRTSSGLGGSTTDFLEEWKAKREKMRAKQNPPGPAPPGGGSSDAAGKPPAGALGTPAAAAANELNNNLPGGAPAAPAVPGPGGVNCAVGSAMLTRAAPGPRRSEDEPPAASASAAPPPQRDEEEPDGVPEKGKSSGPSARKGKGQIEKRKLREKRRSTGVVNIPAAECLDEYEDDEAGQKERKREDAITQQNTIQNEAVNLLDPGSSYLLQEPPRTVSGRYKSTTSVSEEDVSSRYSRTDRSGFPRYNRDANVSGTLVSSSTLEKKIEDLEKEVVRERQENLRLVRLMQDKEEMIGKLKEEIDLLNRDLDDIEDENEQLKQENKTLLKVVGQLTR [PAWR] | 0.552 | 60.6 °C | 55.7 °C | 0.127 | -0.931 | -1.76

Source: the supplement of paper PMC5998384
